In PMC8847575, “HSL1 and BAM1/2 impact epidermal cell development by sensing distinct signaling peptides” (Nature Communications, 2022):
Several values for one entry are separate records, joined by “and”; a condition that tells them apart may be missing. Identical values can stand only once. Like-named read-outs stand apart in the source and are kept apart here. Ends that are not written are not given here.

T1: BAM1 (BARELY ANY MERISTEM 1) ectodomain (Arabidopsis, UniProt O49545 20-637)
T1 chain: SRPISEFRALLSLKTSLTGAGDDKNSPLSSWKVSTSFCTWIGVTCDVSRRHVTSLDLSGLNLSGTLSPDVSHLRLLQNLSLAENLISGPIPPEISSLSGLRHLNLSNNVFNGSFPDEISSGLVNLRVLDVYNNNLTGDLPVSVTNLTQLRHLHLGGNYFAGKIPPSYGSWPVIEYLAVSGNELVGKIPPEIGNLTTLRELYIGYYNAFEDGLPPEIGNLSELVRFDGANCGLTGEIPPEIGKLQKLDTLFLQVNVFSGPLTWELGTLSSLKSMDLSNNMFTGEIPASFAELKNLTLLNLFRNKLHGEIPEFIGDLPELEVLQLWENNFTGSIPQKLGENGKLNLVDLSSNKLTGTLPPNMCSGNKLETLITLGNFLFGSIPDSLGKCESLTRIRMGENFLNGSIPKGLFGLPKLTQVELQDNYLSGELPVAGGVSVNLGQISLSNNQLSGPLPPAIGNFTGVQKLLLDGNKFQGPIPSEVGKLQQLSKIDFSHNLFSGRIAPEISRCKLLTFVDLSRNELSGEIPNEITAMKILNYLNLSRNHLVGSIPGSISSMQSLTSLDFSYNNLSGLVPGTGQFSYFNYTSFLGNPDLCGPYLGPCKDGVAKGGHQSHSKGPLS

T2: biotinylated HSL1 ectodomain with Avi-tag (Arabidopsis, UniProt Q9SGP2 17-618, biotin on the Avi-tag (BirA))
T2 chain: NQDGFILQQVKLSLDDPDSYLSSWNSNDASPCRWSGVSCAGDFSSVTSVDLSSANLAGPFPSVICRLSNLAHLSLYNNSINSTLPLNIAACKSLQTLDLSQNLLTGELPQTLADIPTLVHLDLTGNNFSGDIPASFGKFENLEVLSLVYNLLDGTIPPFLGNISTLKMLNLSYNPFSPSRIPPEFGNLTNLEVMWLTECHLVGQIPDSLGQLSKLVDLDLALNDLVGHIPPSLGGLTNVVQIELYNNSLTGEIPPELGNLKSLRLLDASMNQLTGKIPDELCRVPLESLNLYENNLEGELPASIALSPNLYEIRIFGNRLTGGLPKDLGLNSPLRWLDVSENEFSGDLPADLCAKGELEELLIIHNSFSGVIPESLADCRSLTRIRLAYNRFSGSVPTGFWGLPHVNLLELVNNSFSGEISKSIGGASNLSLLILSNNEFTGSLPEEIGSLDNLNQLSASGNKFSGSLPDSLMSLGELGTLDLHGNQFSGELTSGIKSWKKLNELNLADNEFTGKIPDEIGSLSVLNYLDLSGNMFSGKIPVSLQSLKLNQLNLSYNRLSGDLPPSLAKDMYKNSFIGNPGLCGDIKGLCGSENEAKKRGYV

T3: HSL1 (HAESA-LIKE 1) ectodomain (Arabidopsis, UniProt Q9SGP2 17-618)
T3 chain: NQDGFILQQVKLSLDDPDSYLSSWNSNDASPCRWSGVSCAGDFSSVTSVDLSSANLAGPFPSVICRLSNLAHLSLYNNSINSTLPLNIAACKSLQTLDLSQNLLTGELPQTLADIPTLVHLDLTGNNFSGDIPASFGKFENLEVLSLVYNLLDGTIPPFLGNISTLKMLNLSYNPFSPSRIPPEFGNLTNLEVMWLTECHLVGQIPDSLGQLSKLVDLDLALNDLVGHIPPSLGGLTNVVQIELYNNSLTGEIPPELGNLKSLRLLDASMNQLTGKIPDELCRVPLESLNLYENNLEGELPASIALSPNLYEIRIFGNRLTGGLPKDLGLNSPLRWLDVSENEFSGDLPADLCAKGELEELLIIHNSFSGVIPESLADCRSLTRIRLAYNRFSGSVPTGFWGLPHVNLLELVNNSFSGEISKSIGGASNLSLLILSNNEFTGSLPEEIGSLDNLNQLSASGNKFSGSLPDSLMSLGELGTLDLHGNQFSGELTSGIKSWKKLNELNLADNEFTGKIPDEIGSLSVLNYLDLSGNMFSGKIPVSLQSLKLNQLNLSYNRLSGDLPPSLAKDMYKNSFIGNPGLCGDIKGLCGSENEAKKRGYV


Columns and labels:
[1] = target: T1, BAM1 (BARELY ANY MERISTEM 1) ectodomain; test: ITC
[2] = target: T2, biotinylated HSL1 ectodomain with …; test: GCI
[3] = target: T2, biotinylated HSL1 ectodomain with …
[4] = target: T2, biotinylated HSL1 ectodomain with …; test: GCI
[5] = target: T3, HSL1 (HAESA-LIKE 1) ectodomain; test: ITC
[6] = target: T2, biotinylated HSL1 ectodomain with …

| Binder | Kd [1] | Kd [2] | Kd [3] | koff [4] | Kd [5] | koff [6] |
| --- | --- | --- | --- | --- | --- | --- |
| PLPPSGPNPLHN (also: Hyp112 and Hyp115 presumed as in wild-type) [CLE9^R109PV111P] | 2240 nM |  |  |  |  |  |
| RLVPSAPSKRHN [IDA^P58RI59LP60V peptide] | 980 nM |  |  |  |  |  |
| YVPIPPSAPSKRHN (also: hydroxyproline at Pro64 (precursor numbering), position in chain not settled) [IDA (INFLORESCENCE DEFICIENT IN ABSCISSION) mature peptide] |  | 580 nM | 655 nM and 422 nM | 0.127 s⁻¹ | 400 nM | 0.15 s⁻¹ and 0.12 s⁻¹ |
| YVLVPPSGPSMRHN (not fully specified; also: conserved central hydroxyproline, position not given here) [IDL1 (IDA-LIKE 1) mature peptide] |  |  |  |  | 590 nM |  |
| PVPTSGPSRKHN (not fully specified; also: conserved central hydroxyproline, position not given here) [IDL3 (IDA-LIKE 3) mature peptide] |  | 800 nM | 608 nM and 1000 nM | 0.55 s⁻¹ | 690 nM | 0.59 s⁻¹ and 0.49 s⁻¹ |
| PLVPSGPNPLHN [CLE9 variant with the first residue substituted by the corresponding one of IDA] | 91 nM |  |  |  |  |  |
| YVPVPASGPSRKHN (also: conserved central hydroxyproline, position not given here) [IDL2 (IDA-LIKE 2) mature peptide] |  |  |  |  | 121 nM |  |
